Results on 22 sequences are retold here after the supplement of paper PMC9732359.

This data set can be described thus: protein stability index of a GFP-peptide fusion (yeast GPS) (PSI 1-4); higher = more stable; sorted into four equal gates, so the index is relative within each strain. In short, it runs like this: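 Tiled 17-residue yeast protein peptides were fused downstream of GFP in a plasmid that also expresses Cherry, and the pooled library was carried in yeast. Mid-log cultures in leucine-free medium were sorted into four equal gates by GFP/Cherry fluorescence ratio, and plasmids from each gate were PCR-amplified and Illumina-sequenced, with reads assigned to strains by barcodes. The protein stability index for each peptide was each gate's read frequency times its gate number, summed.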

± gives the uncertainty stated by the source.

For the sequence KARNGLDYVRTPAAATS [SNF2], the protein stability index is, setting by setting: (doa10∆) 2.4 ± 0.059; (pdr5∆) 2.44 ± 0.072; (san1∆) 2.12 ± 0.08; (ubr1∆) 2.35 ± 0.049.

Take KDDGAFVKFLSKKGSLE [RPL10]: the protein stability index (doa10∆) was 3.51 ± 0.18, the protein stability index (pdr5∆) came out at 3.32 ± 0.14, the protein stability index (san1∆) was determined as 3.06 ± 0.068 and the protein stability index (ubr1∆) was 3.25 ± 0.064.

With KDHDLKIPLPEVHDLIG [POP1], the protein stability index by setting is: (doa10∆) 3.11 ± 0.12; (pdr5∆) 2.91 ± 0.14; (san1∆) 2.73 ± 0.21; (ubr1∆) 2.54 ± 0.11.

Regarding KDILVKTGITKKDEDEE [PRE9], the protein stability index (doa10∆) turned out to be 3.37 ± 0.09, the protein stability index (pdr5∆) is 3.27 ± 0.087, the protein stability index (san1∆) was 2.58 ± 0.23 and the protein stability index (ubr1∆) was 3.17 ± 0.14.

Turning to KDKTKNISAEIIRHEKE [SMC4], the protein stability index is 2.58 ± 0.12 (doa10∆), 3.02 ± 0.12 (pdr5∆), 2.99 ± 0.086 (san1∆) and 2.91 ± 0.1 (ubr1∆).

KDLKFPLPHRVQKSTKT [RPL20A]: the protein stability index is, setting by setting: (doa10∆) 2.27 ± 0.053; (pdr5∆) 2.68 ± 0.05; (san1∆) 2.58 ± 0.052; (ubr1∆) 2.69 ± 0.043.

Take KDNAKISNNLALVFAAL [SRP68]: the protein stability index (doa10∆) was found to be 2.24 ± 0.051, the protein stability index (pdr5∆) is 1.86 ± 0.038, the protein stability index (san1∆) was 1.97 ± 0.066 and the protein stability index (ubr1∆) is 2.17 ± 0.04.

With KDRIIDERTKEFEKKLQ [YIL149C/MLP2], the protein stability index is, setting by setting: (doa10∆) 3.23 ± 0.21; (pdr5∆) 3.06 ± 0.19; (san1∆) 2.94 ± 0.086; (ubr1∆) 3.42 ± 0.1.

For KDYSQILKEEFPKIDSL [RPN5], under “pdr5∆”, the protein stability index came to 2.35 ± 0.24.

As to KEALLGQLLKDHLIIEP [ARP9], the protein stability index reads like this: (doa10∆) 1.79 ± 0.12; (pdr5∆) 1.51 ± 0.077; (san1∆) 1.18 ± 0.16; (ubr1∆) 2.45 ± 0.094.

KEALQNNIFKEFTSKIG [SMC1]: the protein stability index is 2.22 ± 0.064 (doa10∆), 2.3 ± 0.082 (pdr5∆), 2.52 ± 0.11 (san1∆) and 2.24 ± 0.073 (ubr1∆).

In the case of KEAVFKSLGVKSLGGGA [FAS2], the protein stability index amounted to 3.26 ± 0.078 (doa10∆), 3.36 ± 0.12 (pdr5∆), 3.25 ± 0.069 (san1∆) and 3.41 ± 0.092 (ubr1∆).

As to KEEFIMMVNISVLISIP [PCI8], the protein stability index (doa10∆) turned out to be 1.43 ± 0.037, the protein stability index (pdr5∆) was found to be 1.33 ± 0.033, the protein stability index (san1∆) turned out to be 1.57 ± 0.074 and the protein stability index (ubr1∆) amounted to 1.36 ± 0.031.

As for KEEFSSAENRDEKDYLT [CSE2], the protein stability index is, setting by setting: (doa10∆) 2.79 ± 0.083; (pdr5∆) 2.85 ± 0.086; (san1∆) 2.65 ± 0.065; (ubr1∆) 2.99 ± 0.12.

For the sequence KEKEAAESPEEADVEMS [PUP2], the protein stability index (doa10∆) worked out at 3.41 ± 0.11, the protein stability index (pdr5∆) stood at 3.51 ± 0.11, the protein stability index (san1∆) is 2.99 ± 0.076 and the protein stability index (ubr1∆) amounted to 3.28 ± 0.071.

Consider KEKIKGLQDEIMKIGGI [SMC4], for which the protein stability index came out at 3 ± 0.09 (doa10∆), 3.19 ± 0.055 (pdr5∆), 3.17 ± 0.049 (san1∆) and 3.36 ± 0.063 (ubr1∆).

KELDQELIIDPLFKKAL [BRN1]: the protein stability index worked out at 3.23 ± 0.071 (doa10∆), 3.07 ± 0.073 (pdr5∆), 3.13 ± 0.11 (san1∆) and 3.07 ± 0.052 (ubr1∆).

Regarding KELFGEDEDEDLFGDSN [SSN2], the protein stability index was 3.32 ± 0.2 (doa10∆), 3.54 ± 0.2 (pdr5∆), 3.21 ± 0.27 (san1∆) and 3.67 ± 0.2 (ubr1∆).

Regarding KELNEKIQKLEEDDEGE [RPN7], the protein stability index came out at 1.2 ± 0.11 (doa10∆), 1.61 ± 0.12 (pdr5∆), 1.25 ± 0.15 (san1∆) and 1.06 ± 0.08 (ubr1∆).

Consider KELVECHLYSQRMHAIH [NNF1], for which the protein stability index was determined as 1.96 ± 0.056 (doa10∆), 2.05 ± 0.049 (pdr5∆), 2.05 ± 0.085 (san1∆) and 2.23 ± 0.05 (ubr1∆).

In turn, KEMTLQKNMNDLLRSQL [YIL149C/MLP2] yielded a protein stability index (doa10∆) of 3.08 ± 0.049, a protein stability index (pdr5∆) of 2.43 ± 0.052, a protein stability index (san1∆) of 2.19 ± 0.082 and a protein stability index (ubr1∆) of 2.64 ± 0.046.

Consider KENGQLIGAATKFKGGK [SEC65], for which the protein stability index by setting is: (doa10∆) 1.7 ± 0.057; (pdr5∆) 1.65 ± 0.073; (san1∆) 1.54 ± 0.11; (ubr1∆) 2.17 ± 0.072.
